Test results as given in patent publication US20160194391A1.

Experiments:
[1] = target: 3×FLAG-IL-6 (human); test: SPR, 3×FLAG-IL-6 captured by anti-FLAG M2 on protein G, scFv-PEG as analyte; material refolded by dialysis from urea; refolded by dialysis from urea
[2] = target: human IL-6 (human) (UniProt P05231); test: cell-based or functional assay
[3] = target: 3×FLAG-IL-6 (human); test: SPR, 3×FLAG-IL-6 captured by anti-FLAG M2 on protein G, scFv-PEG as analyte; material refolded by dialysis from urea
[4] = target: 3×FLAG-IL-6 (human); test: SPR, 3×FLAG-IL-6 captured by anti-FLAG M2 on protein G, scFv-PEG as analyte; material refolded by rapid dilution from SDS; refolded by rapid dilution from SDS
[5] = target: human IL-6 (human) (UniProt P05231)
[6] = target: human dimeric IL-23 (eBiosciences 34-8239) (human) (UniProt P29460)
Sequence of human dimeric IL-23 (eBiosciences 34-8239) (human) (P29460 23-328 limits assumed, chain 1 of 2): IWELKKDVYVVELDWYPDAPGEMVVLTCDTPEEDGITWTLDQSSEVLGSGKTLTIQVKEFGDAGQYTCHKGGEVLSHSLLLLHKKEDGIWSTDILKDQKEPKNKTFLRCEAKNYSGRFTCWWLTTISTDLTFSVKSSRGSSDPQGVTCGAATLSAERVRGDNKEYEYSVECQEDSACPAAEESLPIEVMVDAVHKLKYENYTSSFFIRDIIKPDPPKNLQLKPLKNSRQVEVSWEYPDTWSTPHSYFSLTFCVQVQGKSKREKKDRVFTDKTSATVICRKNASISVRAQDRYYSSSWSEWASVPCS
Sequence of human dimeric IL-23 (eBiosciences 34-8239) (human) (Q9NPF7 20-189 limits assumed, chain 2 of 2, further chain): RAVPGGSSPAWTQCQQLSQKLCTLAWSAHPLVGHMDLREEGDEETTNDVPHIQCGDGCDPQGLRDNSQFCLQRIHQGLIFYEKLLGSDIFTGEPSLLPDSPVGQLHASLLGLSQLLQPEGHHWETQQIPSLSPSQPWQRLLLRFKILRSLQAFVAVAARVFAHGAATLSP

Sequence of 3×FLAG-IL-6 (human) (chain, as listed by the source limits assumed): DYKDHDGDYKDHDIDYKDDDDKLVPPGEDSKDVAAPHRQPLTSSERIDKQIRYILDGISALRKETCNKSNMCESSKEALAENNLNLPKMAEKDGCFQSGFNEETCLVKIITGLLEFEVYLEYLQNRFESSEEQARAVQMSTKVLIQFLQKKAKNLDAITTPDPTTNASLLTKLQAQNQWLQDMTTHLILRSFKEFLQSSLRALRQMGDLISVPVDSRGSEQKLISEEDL
Sequence of human IL-6 (human) (P05231 30-212 limits assumed): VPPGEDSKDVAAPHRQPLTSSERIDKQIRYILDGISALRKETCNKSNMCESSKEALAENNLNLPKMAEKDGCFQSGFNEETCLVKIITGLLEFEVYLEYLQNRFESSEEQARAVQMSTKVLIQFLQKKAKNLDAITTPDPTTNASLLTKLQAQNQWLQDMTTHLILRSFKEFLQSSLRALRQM

B1: 28D2c-PEG (scFv)
scFv: MAHHHHHHPPPPAAADIQLTQSPSFLSASVGDRVTITCQASEDLFSSLAWYQQKPGKAPKLLIYSASTLASGVPSRFSGSGSGTDFTLTISSLQPEDFATYYCLGLYYYLTPDPIYGFGGGTKVEIKGGGGSGGGGSGGGGSGGGGSEVQLVESGGGLVQPGGSLRLSCTVSGLSLSKNAIAWVRQAPGKGLEWVGIIYAGGATTYASWAKGRFTISRDNSKNTLYLQLNSLRAEDTAVYYCAREYAGDSYYTGYTQLDLWGQGTLVTVSSGM
modifications: C-terminal azidohomoalanine (Aha) conjugated to 30 kDa linear PEG alkyne
kon [1]: 507000 M⁻¹ s⁻¹ | EC50, IL-6 neutralization; folded by dialysis from urea [2]: 0.116 ng/mL | EC50 of the product; folded by rapid dilution from SDS [2]: 0.256 ng/mL | EC50 of the product; folded by rapid dilution from urea [2]: 0.138 ng/mL | EC50 of the product; folded from guanidine [2]: 0.15 ng/mL | Kd [3]: 0.193 nM | koff [3]: 9.78e-05 s⁻¹ | Kd [4]: 0.319 nM | koff [4]: 0.000104 s⁻¹ | kon [4]: 326000 M⁻¹ s⁻¹

B2: 28D2-C Aha (scFv)
scFv: MAHHHHHHPPPPAAADIQLTQSPSFLSASVGDRVTITCQASEDLFSSLAWYQQKPGKAPKLLIYSASTLASGVPSRFSGSGSGTDFTLTISSLQPEDFATYYCLGLYYYLTPDPIYGFGGGTKVEIKGGGGSGGGGSGGGGSGGGGSEVQLVESGGGLVQPGGSLRLSCTVSGLSLSKNAIAWVRQAPGKGLEWVGIIYAGGATTYASWAKGRFTISRDNSKNTLYLQLNSLRAEDTAVYYCAREYAGDSYYTGYTQLDLWGQGTLVTVSSGM
modifications: azidohomoalanine (Aha) in place of the single Met, at the C terminus
IC50 (read off the curve) (B9 proliferation, OD570-600) [5]: 0.03 ng/mL

B3: 28D2 N-Aha (scFv)
scFv: MEDIQLTQSPSFLSASVGDRVTITCQASEDLFSSLAWYQQKPGKAPKLLIYSASTLASGVPSRFSGSGSGTDFTLTISSLQPEDFATYYCLGLYYYLTPDPIYGFGGGTKVEIKGGGGSGGGGSGGGGSGGGGSEVQLVESGGGLVQPGGSLRLSCTVSGLSLSKNAIAWVRQAPGKGLEWVGIIYAGGATTYASWAKGRFTISRDNSKNTLYLQLNSLRAEDTAVYYCAREYAGDSYYTGYTQLDLWGQGTLVTVSSGPPPPPHHHHHH
modifications: azidohomoalanine (Aha) in place of the single Met, at the N terminus
IC50 (read off the curve) (B9 proliferation, OD570-600) [5]: 0.03 ng/mL

B4: 28D2-L Aha (scFv)
scFv: MADIQLTQSPSFLSASVGDRVTITCQASEDLFSSLAWYQQKPGKAPKLLIYSASTLASGVPSRFSGSGSGTDFTLTISSLQPEDFATYYCLGLYYYLTPDPIYGFGGGTKVEIKGGGGSGMGGSGGGGSGGGGSEVQLVESGGGLVQPGGSLRLSCTVSGLSLSKNAIAWVRQAPGKGLEWVGIIYAGGATTYASWAKGRFTISRDNSKNTLYLQLNSLRAEDTAVYYCAREYAGDSYYTGYTQLDLWGQGTLVTVSSGPPPPPHHHHHH
modifications: azidohomoalanine (Aha) in place of a single Met in the Gly/Ser linker between VL and VH
IC50 (read off the curve) (B9 proliferation, OD570-600) [5]: 0.03 ng/mL

B5: 45G5 humanized scFv (mammalian expressed) (scFv)
scFv: DIQLTQSPSFLSASVGDRVTITCQSSQSIYNNNLLSWYQQKPGKAPKLLIYFASTLASGVPSRFSGSGSGTEFTLTISSLQPEDFATYYCLGGYDDDADTAFGGGTKVEIKGGGGSGGGGSGGGGSGGGGSEVQLVESGGGLVQPGGSLRLSCTVSGFSLSVYPINWVRQAPGKGLEWVGIINDVDDTAYSAWAKGRFTISRDNSKNTLYLQMNSLRAEDTAVYYCARGYLSYAYAGDAFDPWGQGTLVTVSSGPPPPHHHHHH
IC50 (read off the curve) (IL-17 from mouse splenocytes, OD450) [6]: 0.4 ng/mL
